For this test, the target named is T1, recombinant human IGFBP3 (insulin-like growth factor binding protein 3) (human, UniProt P17936 28-291).
T1 construct: as far as I recall the product is the mature protein without the signal peptide (about Gly28-Lys291); also called rh-IGFBP3; source: bought: R&D Systems, 8874-B3; expressed in S9-baculovirus, purity >95%
Briefly: SPR; Biacore 8 K. The following applies: both partners purified.

T1 sequence (P17936 28-291): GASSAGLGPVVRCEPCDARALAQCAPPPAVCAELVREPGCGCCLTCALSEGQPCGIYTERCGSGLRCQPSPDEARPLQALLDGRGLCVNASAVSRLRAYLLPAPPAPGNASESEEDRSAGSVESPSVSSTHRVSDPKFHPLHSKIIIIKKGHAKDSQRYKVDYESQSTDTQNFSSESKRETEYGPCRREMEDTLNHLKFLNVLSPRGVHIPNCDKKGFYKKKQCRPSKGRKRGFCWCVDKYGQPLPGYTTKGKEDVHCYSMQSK

B1: ecto-TMEM219 (recombinant protein based on the TMEM219 extracellular domain) (domain or fragment)
chain: THRTGLRSPDIPQDWVSFLRSFGQLTLCPRNGTVTGKWRGSHVVGLLTTLNFGDGPDRNKTRTFQATVLGSQMGLKGSSAGQLVLITARVTTERTAGTCLYFSAVPGILPSSQPPISCSEEGAGNATLSPRMGEECVSVWSHEGLVLTKLLTSEELALCGSR
notes: TMEM219 extracellular domain, 162 amino acids as printed, molecular weight 18 kDa; Buffer 10 mM HEPES, 0.05% SDS, pH 7.5; also called newly generated recombinant protein based on TMEM219 extracellular portion; source: E. coli (vector pET30a), by Genscript, from inclusion bodies, one-step purification through Nickel column, purity >90%
On to B1, for which the dissociation constant (Kd) stood at 1010 nM.

Usually Kd stands for the equilibrium constant for the complex coming apart.
